Data reported in the supplement of paper PMC10567573.

B1: SPSB4 (parent)
chain: LDMDEGTLSFIVDGQYLGVAFRGL
B2: VENTX (parent)
chain: VFQHHQYLSPLERKRLAREMQLSE

Variants of: B1
Assay: protein stability index of a GFP-peptide fusion (GPS, HEK-293T) (PSI 1-6); higher = more stable
Conditions: c terminus: a fixed tail appended
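Note: lentivirally expressed fusions sorted by FACS into six bins by GFP to DsRed ratio, PSI derived from sequencing read proportions per bin multiplied by bin number.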

Protein stability index of substitutions, site by site:
L1: N 1.28, H 2.12, P 1.96, K 1.27, D 1.31, T 1.86, Q 1.53, A 1.83, E 1.66, C 3.04, Y 1.32, F 2.48, V 2.51, W 2.76, R 2.09, S 1.71, G 1.65, I 2.59, M 2.75
E5: P 1.42, N 3.71, Y 2.27, H 3.53, W 3.01, D 2.77, L 2.51, V 3.95, C 3.63, F 2.59, S 2.79, G 1.85, I 3.72, R 1.9, Q 2.7, M 2.56
I11: Q 2.31, T 2.74, K 1.94, H 3.77, F 4.16, P 2.25, Y 2.58, G 2.45, N 2.49, D 1.68, A 1.72, E 1.39, L 3.07, S 2.63, M 2.28, W 1.56, C 3.29, V 1.47, R 2.4
D4: R 2.39, C 1.66, A 1.71, H 3.59, L 4.51, N 1.93, G 2.73, M 3.51, T 2.45, S 2.52, Q 2.4, I 3.21, P 1.66, K 2.15, V 2.95
L8: C 3.35, R 2.11, F 2.3, D 2.21, I 2.43, S 1.67, A 1.27, G 1.76, Q 2.12, H 1.55, M 2.72, E 1.94, T 1.87, P 1.88, W 3.21, N 1.86, K 1.47, V 4.24
D2: E 2.68, W 2.23, Q 1.65, I 2.56, P 2.26, H 2.12, S 2.1, A 2.04, K 1.64, Y 2.74, T 3.9, L 2.87, R 2.74, V 2.35, M 2.62
G6: F 2.25, A 3.24, S 4.16, I 2.38, P 1.72, E 1.98, Q 3.01, T 2.32, M 2.66, R 2.28, N 3.5, D 1.87, W 2.88, C 3.03, K 2.78, Y 3.87, H 2.65
V12: E 2.01, P 1.7, K 1.79, H 1.62, N 1.75, G 1.94, S 1.8, Q 1.58, A 1.96, D 1.99, L 1.26, R 1.84, F 1.92, C 3.24, M 2.67
M3: D 1.59, A 2.05, C 2.17, G 2.09, N 1.52, L 3.27, H 2.39, K 2.9, F 2.33, V 2.67, I 1.33, Q 2.68, S 1.77, P 1.74, R 2.68, E 1.42
S9: T 2.45, Q 2.01, C 2.76, D 1.87, P 1.74, L 1.75, N 2.9, G 2.99, Y 2.89, V 1.81, K 1.99, H 2.95, E 2.58, A 3.98
F10: S 2.13, N 2.27, C 2.49, W 2.33, M 1.73, L 1.76, D 2.79, K 2.37, A 1.84, T 2.44, V 2.38, R 2.21, Y 1.89, P 2.3, E 3.13, H 2.14, G 1.5, Q 2
T7: V 1.86, Q 3.36, P 1.64, W 3.12, G 2.27, D 2.11, S 3.54, K 2.03, R 1.75, A 2.34, I 2.18, F 1.81, L 1.99, Y 2.04, H 1.94, M 2.53, E 1.31, N 1.23

Variants of: B2
Assay: as above
Conditions: c terminus: a fixed tail appended

Protein stability index, by site and new letter:
Q21: M 2.06, P 2.64, N 2.29, F 1.98, H 2.68, W 2.43, E 2.54, A 2.49, S 2.77, T 2.49, Y 3.06, G 2.51, R 2.99, K 2.66, V 2.44, L 2.59, I 2.32, D 3.61, C 2.5
A17: Y 3.02
E24: Y 2.07, I 2.23, R 1.95, M 2.39, V 1.39, L 2.07, P 2.1, C 1.82, G 2.3, T 2.27, N 2.37, Q 2.5, W 2.76, K 2.29, A 2.14, H 2.47, S 2.65, F 1.93, D 2.48
R18: C 2.58, N 2.34, T 2.9, W 2.21, P 2.13, E 2.8, A 2.28, V 1.63, H 2.74, D 2.77, I 2.67, S 3, M 2.21, G 2.68, F 2.21, Y 2, L 2.33, Q 2.73, K 2.65
S23: M 2.4, A 3.5, C 2.41, I 1.97, L 2.84, H 2.37, W 2.04, G 2.5, V 2.18, P 2.78, F 2.98, T 2.44, Y 2.42, R 2.33, D 2.66, N 2.25, K 2.22, Q 3.04, E 3.23
L22: M 2.42, Y 2.17, C 2.84, K 3.62, R 2.44, D 3.29, Q 2.38, T 3.12, N 3.04, F 1.83, V 2.27, H 2.93, P 2.68, W 1.96, I 1.93, E 2.85, S 2.56, G 1.89, A 2.72
E19: W 1.91, L 1.81, S 2.42, A 2.08, G 2.06, P 2.44, I 1.86, F 1.76, N 3.28, Q 3.09, V 1.91, Y 1.91, K 1.94, T 2.16, M 1.78, R 2.38, C 1.91, D 2.67, H 2.17
M20: C 3.43, I 2.39, F 2.04, A 2.8, D 3.1, P 2.78, Y 2.96, N 2.53, G 2.71, E 3.28, Q 2.6, K 2.54, L 2.75, V 2.29, R 3.25, S 2.62, W 1.67, T 2.36, H 2.57
